Experiments:
[1] = system: S9.6 Fab WT, PDB:7TQB_1+PDB:7TQB_2; test: fluorescence polarization; details: FP: 25 mM Tris-HCl pH 7.5, 50 mM NaCl, 2 mM MgCl2, 21 C, ~5 nM FAM duplex, ITC same buffer at 25 C, SEC-MALS 150 mM NaCl
[2] = system: S9.6 Fab WT, PDB:7TQB_1+PDB:7TQB_2; test: fluorescence polarization; details: FP: 25 mM Tris-HCl pH 7.5, 50 mM NaCl, 2 mM MgCl2, 21 C, ~5 nM FAM duplex, ITC same buffer at 25 C, SEC-MALS 150 mM NaCl; remark: listed apart in the source
[3] = system: S9.6 Fab HC_Y54D, PDB:7TQB_1+PDB:7TQB_2; test: fluorescence polarization; details: FP: 25 mM Tris-HCl pH 7.5, 50 mM NaCl, 2 mM MgCl2, 21 C, ~5 nM FAM duplex; ITC same buffer at 25 C; SEC-MALS 150 mM NaCl
[4] = system: S9.6 Fab HC_Y54F, PDB:7TQB_1+PDB:7TQB_2; test: fluorescence polarization; details: FP: 25 mM Tris-HCl pH 7.5, 50 mM NaCl, 2 mM MgCl2, 21 C, ~5 nM FAM duplex; ITC same buffer at 25 C; SEC-MALS 150 mM NaCl
[5] = system: S9.6 Fab HC_Y54W, PDB:7TQB_1+PDB:7TQB_2; test: fluorescence polarization; details: FP: 25 mM Tris-HCl pH 7.5, 50 mM NaCl, 2 mM MgCl2, 21 C, ~5 nM FAM duplex; ITC same buffer at 25 C; SEC-MALS 150 mM NaCl
[6] = system: S9.6 Fab HC_Y54H, PDB:7TQB_1+PDB:7TQB_2; test: fluorescence polarization; details: FP: 25 mM Tris-HCl pH 7.5, 50 mM NaCl, 2 mM MgCl2, 21 C, ~5 nM FAM duplex; ITC same buffer at 25 C; SEC-MALS 150 mM NaCl
[7] = system: S9.6 Fab HC_S31G, PDB:7TQB_1+PDB:7TQB_2; test: fluorescence polarization; details: FP: 25 mM Tris-HCl pH 7.5, 50 mM NaCl, 2 mM MgCl2, 21 C, ~5 nM FAM duplex; ITC same buffer at 25 C; SEC-MALS 150 mM NaCl
[8] = system: S9.6 Fab HC_Y54Q, PDB:7TQB_1+PDB:7TQB_2; test: fluorescence polarization; details: FP: 25 mM Tris-HCl pH 7.5, 50 mM NaCl, 2 mM MgCl2, 21 C, ~5 nM FAM duplex; ITC same buffer at 25 C; SEC-MALS 150 mM NaCl
[9] = system: S9.6 Fab HC_Y54A, PDB:7TQB_1+PDB:7TQB_2; test: fluorescence polarization; details: FP: 25 mM Tris-HCl pH 7.5, 50 mM NaCl, 2 mM MgCl2, 21 C, ~5 nM FAM duplex; ITC same buffer at 25 C; SEC-MALS 150 mM NaCl
[10] = system: S9.6 Fab HC_S31A, PDB:7TQB_1+PDB:7TQB_2; test: fluorescence polarization; details: FP: 25 mM Tris-HCl pH 7.5, 50 mM NaCl, 2 mM MgCl2, 21 C, ~5 nM FAM duplex; ITC same buffer at 25 C; SEC-MALS 150 mM NaCl
[11] = system: S9.6 Fab HC_Y32A, PDB:7TQB_1+PDB:7TQB_2; test: fluorescence polarization; details: FP: 25 mM Tris-HCl pH 7.5, 50 mM NaCl, 2 mM MgCl2, 21 C, ~5 nM FAM duplex; ITC same buffer at 25 C; SEC-MALS 150 mM NaCl
[12] = system: S9.6 Fab HC_Y54R, PDB:7TQB_1+PDB:7TQB_2; test: fluorescence polarization; details: FP: 25 mM Tris-HCl pH 7.5, 50 mM NaCl, 2 mM MgCl2, 21 C, ~5 nM FAM duplex; ITC same buffer at 25 C; SEC-MALS 150 mM NaCl
[13] = system: S9.6 Fab HC_Y101F, PDB:7TQB_1+PDB:7TQB_2; test: fluorescence polarization; details: FP: 25 mM Tris-HCl pH 7.5, 50 mM NaCl, 2 mM MgCl2, 21 C, ~5 nM FAM duplex; ITC same buffer at 25 C; SEC-MALS 150 mM NaCl
[14] = system: S9.6 Fab HC_Y54G, PDB:7TQB_1+PDB:7TQB_2; test: fluorescence polarization; details: FP: 25 mM Tris-HCl pH 7.5, 50 mM NaCl, 2 mM MgCl2, 21 C, ~5 nM FAM duplex; ITC same buffer at 25 C; SEC-MALS 150 mM NaCl
[15] = system: S9.6 Fab WT, PDB:7TQB_1+PDB:7TQB_2; test: competition; details: FP: 25 mM Tris-HCl pH 7.5, 50 mM NaCl, 2 mM MgCl2, 21 C, ~5 nM FAM duplex; ITC same buffer at 25 C; SEC-MALS 150 mM NaCl
[16] = system: S9.6 Fab WT, PDB:7TQB_1+PDB:7TQB_2; test: ITC; details: 2 mM Mg2+, 25 C; FP: 25 mM Tris-HCl pH 7.5, 50 mM NaCl, 2 mM MgCl2, 21 C, ~5 nM FAM duplex; ITC same buffer at 25 C; SEC-MALS 150 mM NaCl
[17] = system: S9.6 Fab HC_Y54V, PDB:7TQB_1+PDB:7TQB_2; test: fluorescence polarization; details: FP: 25 mM Tris-HCl pH 7.5, 50 mM NaCl, 2 mM MgCl2, 21 C, ~5 nM FAM duplex; ITC same buffer at 25 C; SEC-MALS 150 mM NaCl
[18] = system: S9.6 Fab HC_Y54L, PDB:7TQB_1+PDB:7TQB_2; test: fluorescence polarization; details: FP: 25 mM Tris-HCl pH 7.5, 50 mM NaCl, 2 mM MgCl2, 21 C, ~5 nM FAM duplex; ITC same buffer at 25 C; SEC-MALS 150 mM NaCl
[19] = system: S9.6 Fab HC_Y54M, PDB:7TQB_1+PDB:7TQB_2; test: fluorescence polarization; details: FP: 25 mM Tris-HCl pH 7.5, 50 mM NaCl, 2 mM MgCl2, 21 C, ~5 nM FAM duplex; ITC same buffer at 25 C; SEC-MALS 150 mM NaCl

Sequence: CAGACGGACA / UGUCCGUCUG [10-bp hybrid 60% GC]
- Kd [1]: 610 nM

Sequence: CAGACAGACA / UGUCUGUCUG [10-bp hybrid 50% GC]
- Kd [1]: 3110 nM

Sequence: CGGACGGACA / UGUCCGUCCG [10-bp hybrid 70% GC]
- Kd [1]: 420 nM

Sequence: CGGACGGACG / CGUCCGUCCG [10-bp hybrid 80% GC]
- Kd [1]: 570 nM

Sequence: CGTGTCAGACAAG / CTUGUCUGACACG
- Kd ([2]; table fit 20.6 +/- 5.8 uM, RNA strand: deoxy at positions 2, 4, 6, 8, 10, 12 (12 inferred, name is cut in the material)): > 21000 nM

Sequence: CGGCCGGACG / CGUCCGGCCG [10-bp hybrid 90% GC]
- Kd [1]: 1020 nM

Sequence: CGTGTCTGACAAG / CUUGUCAGACACG [13-bp hybrid rU7A:dA7T]
- Kd [1]: 110 nM

Sequence: CGTGTCAGACAAG / CUUGUCUGACACG [13-bp DNA-RNA hybrid]
- Kd [3]: 5160 nM
- Kd [4]: 400 nM
- Kd [5]: 760 nM
- Kd [6]: 360 nM
- Kd [7]: 170 nM
- Kd ([1]; 2 mM Mg2+): 190 nM
- Kd [8]: 730 nM
- Kd [9]: 2650 nM
- Kd [10]: 140 nM
- Kd [11]: 25400 nM
- Kd [12]: 150 nM
- binding signal (fold lower binding than WT) [13]: < 2
- Kd ([2]; 2 mM Mg2+): 232 nM
- binding signal (fold lower affinity than WT) [14]: 58
- IC50 [15]: 450 nM
- Kd [16]: 415 nM

Sequence: CGUGUCAGACAAG / CUUGUCUGACACG [13-bp hybrid, 2'-OH at dT3-dG4-dT5-dC6-dA7]
- Kd ([1]; DNA strand: ribonucleotides at positions 3-7): 100 nM

Sequence: CUUGUCUGACACG / CGUGUCAGACAAG [13-bp dsRNA]
- Kd [17]: 1610 nM
- Kd [4]: 8300 nM
- Kd [5]: 11800 nM
- Kd [6]: 4300 nM
- Kd [18]: 3990 nM
- Kd [8]: 1640 nM
- Kd [19]: 4530 nM
- Kd [9]: 2350 nM
- Kd [12]: 1910 nM
- Kd ([2]; 2 mM Mg2+): 3790 nM
- IC50 [15]: 57000 nM

Sequence: CGTGTCAGACAAG / CTTGTCUGACACG [13-bp dsDNA with 2'-OH at U7-G8-A9]
- Kd ([2]; text: Kd > 7 uM, weakly bound, strand 2: ribonucleotides at positions 7-9, rest DNA): 7000 nM

Sequence: CGTGTCAGACAAG / CUTGUCUGACACG
- Kd ([2]; RNA strand: deoxy at positions 3, 6, 9, 12): 380 nM

Sequence: CGTGUCAGACAAG / CUUGUCUGACACG [13-bp hybrid, 2'-OH (uridine) at dT5]
- Kd ([1]; DNA strand: ribo-U at position 5): 140 nM

Reference: article PMC8960830
